# Reference: IntAct's records for PubMed 18614016
# B1: Tyrosine-protein kinase CSK (Homo sapiens), P41240 (parent)
# chain: MSAIQAAWPSGTECIAKYNFHGTAEQDLPFCKGDVLTIVAVTKDPNWYKAKNKVGREGIIPANYVQKREGVKAGTKLSLMPWFHGKITREQAERLLYPPETGLFLVRESTNYPGDYTLCVSCDGKVEHYRIMYHASKLSIDEEVYFENLMQLVEHYTSDADGLCTRLIKPKVMEGTVAAQDEFYRSGWALNMKELKLLQTIGKGEFGDVMLGDYRGNKVAVKCIKNDATAQAFLAEASVMTQLRHSNLVQLLGVIVEEKGGLYIVTEYMAKGSLVDYLRSRGRSVLGGDCLLKFSLDVCEAMEYLEGNNFVHRDLAARNVLVSEDNVAKVSDFGLTKEASSTQDTGKLPVKWTAPEALREKKFSTKSDVWSFGILLWEIYSFGRVPYPRIPLKDVVPRVEKGYKMDAPDGCPPAVYEVMKNCWHLDAAMRPSFLQLREQLEHIKTHELHL
# Variants of: B1
# Conditions: with src_chick SRC
row,effect of a mutation on the interaction,Variant
1,decreasing interaction,R281A
2,decreasing interaction,R279A
3,decreasing interaction,R283A
4,decreasing interaction,R384A
5,decreasing interaction,R389A
